Data: paper PMC8482478, “N-acetylmannosamine-6-phosphate 2-epimerase uses a novel substrate-assisted mechanism to catalyze amino sugar epimerization” (The Journal of Biological Chemistry, 2021)

Molecular target: the molecule itself
Experiment: AUC; sedimentation velocity, 0.5 mg/ml SaNanE in 20 mM Tris pH 8.0, 150 mM NaCl, 50,000 rpm, 20 °C; c(s) and c(M) models in SEDFIT

B1: N-acetylmannosamine-6-phosphate 2-epimerase (NanE) from Staphylococcus aureus, wildtype (enzyme, S. aureus USA300)
chain: MLPHGLIVSCQALPDEPLHSSFIMSKMALAAYEGGAVGIRANTKEDILAIKETVDLPVIGIVKRDYDHSDVFITATSKEVDELIESQCEVIALDATLQQRPKETLDELVSYIRTHAPNVEIMADIATVEEAKNAARLGFDYIGTTLHGYTSYTQGQLLYQNDFQFLKDVLQSVDAKVIAEGNVITPDMYKRVMDLGVHCSVVGGAITRPKEITKRFVQIMED
notes: N-acetylmannosamine-6-phosphate 2-epimerase (NanE) of S. aureus USA300; also called SaNanE; wildtype SaNanE
B1 was tested, and the “stoichiometry N” value was 2.
